Measurements taken from patent publication US8715959B2, “Substitution mutant receptors and their use in a nuclear receptor-based inducible gene expression system” (priority 2001, dated 2014).
Substitutions are numbered along the chain they refer to. Numbers in names are those of the source.

B1: A110P: CfEcR LBD substitution mutant, Alanine (A) to Proline (P); also made in CfEcR-A/BCDEF and CfEcR-CDEF (protein, listed as Choristoneura fumiferana)
chain: LTANQQFLIARLIWYQDGYEQPSDEDLKRITQTWQQADDENEESDTPFRQITEMTILTVQLIVEFAKGLPGFAKISQPDQITLLKACSSEVMMLRVARRYDAASDSVLFPNNQAYTRDNYRKAGMAYVIEDLLHFCRCMYSMALDNIHYALLTAVVIFSDRPGLEQPQLVEEIQRYYLNTLRIYILNQLSGSARSSVIYGKILSILSELRTLGMQNSNMCISLKLKNRKLPPFLEEIWDV
B2: A110M: CfEcR-DEF LBD substitution mutant, Alanine (A) to Methionine (M) (protein, listed as Choristoneura fumiferana)
chain: B1 chain with P110M
B3: A110S: CfEcR-DEF LBD substitution mutant, Alanine (A) to Serine (S) (protein, listed as Choristoneura fumiferana)
chain: B1 chain with P110S
B4: A110L: CfEcR-DEF LBD substitution mutant, Alanine (A) to Leucine (L) (protein, listed as Choristoneura fumiferana)
chain: B1 chain with P110L

Columns and labels:
WT full-length EcR = test: In vitro ligand binding assay with 3H-RH2485 and cold competitors, full-length WT EcR (FIG. 1); parameters: species or system Choristoneura fumiferana; conditions: cold ligand as competitor
Procedure: (§1) Applicants tested the A110P mutant CfEcR receptor in a steroid and non-steroid ligand binding assay to confirm that steroid binding was eliminated. Briefly, PonA binding activity was determined using an in vitro ligand binding assay (LBA). Steroid ligand binding assay (LBA) was performed using ^3H-PonA (200 Ci/mmol). In vitro translated Gal4/wild-type or A110P mutant CfEcR-DEF and bacterial expressed GST-CfUSP-A/BCDEF were used in the assay. The assay was performed with 8 μL of Gal4/wild-type or A110P mutant CfEcR-DEF, 2.5 uL of GST-CfUSP-A/BCDEF, 1 μL of ^3H-PonA, and 2 μL of unlabeled (“cold”) PonA as competitor in the presence of T buffer [90 mM Tris pH 8.0, 10 μM DTT comprising Complete™ protease inhibitor cocktail used according to the manufacturer's instructions (Boehringer Mannheim)]. The reaction was carried out at room temperature for 1 hour followed by the addition of dextran-coated charcoal (Sigma). The mixture was centrifuged at 7000×g for 10 minutes the amount of ^3H-PonA in the supernatant was measured. The reactions were done in triplicate. The full-length WT EcR or its A110P mutant were also in vitro translated and transcribed using the TNT system (Promega) according to the manufacturer's instructions and tested in in vitro ligand binding assays using 3H-RH2485, with cold 20E or non-steroids (RH2485 and GS™-E) as competitors. In addition, 5 μL of the in vitro translations were assayed for translation efficiency using SDS-PAGE following standard methods (Maniatis, 1989). The ligand binding results for both the wild-type and A110P mutant CfEcR-DEF receptors were calculated and are shown in FIG. 1.

[1] = molecular target: A110P mutant CfEcR-A/BCDEF (Choristoneura fumiferana, UniProt O77255, A393P); test: 3H-RH2485 competition ligand binding, A110P mutant CfEcR-A/BCDEF with CfUSP
Procedure: The ligand binding affinities of the A110P GAL4/CfEcR mutant were measured by binding ^3H-RH2485 and competing it with different concentrations of cold steroids or non-steroids. Briefly, 3H-RH2485 was bound to in vitro translated full-length CfEcR and bacterially expressed CfUSP and competed with increasing concentrations of cold steroidal or non-steroidal ligands. The reaction was carried out at room temperature for 1 hour followed by addition of activated dextran coated charcoal and centrifugation at 7000×g for 10 minutes at 4° C. The residual ^3H-RH2485 in the supernatant after centrifugation was measured using a scintillation counter. The fraction bound (f bound) values were determined and plotted against the concentration of ligand (in mM).

A110P mutant CfEcR = test: In vitro ligand binding assay with 3H-RH2485 and cold competitors, full-length A110P mutant (FIG. 1); parameters: species or system Choristoneura fumiferana; conditions: cold ligand as competitor of 3H-RH2485
Procedure: as §1

wild-type CfEcR-A/BCDEF = molecular target: T1, wild-type CfEcR-A/BCDEF (Choristoneura fumiferana, UniProt O77240); test: 3H-RH2485 competition ligand binding, wild-type CfEcR-A/BCDEF with CfUSP
T1 construct: "The full-length spruce budworm Choristoneura fumiferana EcR (“CfEcR-A/BCDEF”); b350 and b353 describe plain full-length EcR translated in vitro

CfEcR = test: In vitro 3H-PonA ligand binding of CfEcR wild-type and A110 mutants (FIG. 5); parameters: species or system Choristoneura fumiferana; conditions: in vitro translated receptor with GST-CfUSP-A/BCDEF
CfEcR-DEF [2] = test: GAL4/mutant CfEcR-DEF + VP16/LmUSP-EF GAL4-driven luciferase reporter transactivation in NIH3T3 cells; type: cell-based, Choristoneura fumiferana
Procedure: DNAs corresponding to the various switch constructs outlined in Example 1, specifically switches 1.1-1.13, were transfected into mouse NIH3T3 cells (ATCC) or L57 cells (Dr. Peter Cherbas; Indiana University) as follows. Standard methods for culture and maintenance of the cells were followed. […] Superfect™ (Qiagen Inc.) was used for 3T3 cells and Lipofectamine™ (LifeTechnologies) was used for L57 cells as the transfection reagents. For 12-well plates, 4 μl of Superfect™ or Lipofectamine™ was mixed with 100 μl of growth medium. One μg of reporter construct and 0.25 μg of each receptor construct of the receptor pair to be analyzed were added to the transfection mix. […] The cells were harvested and reporter activity was assayed.
Cells were harvested 40 hours after adding ligands. […] Twenty μl of lysate were assayed.
Briefly, Applicants mutated amino acid residues predicted to be critical for ecdysteroid binding into alanine and created GAL4/mutantCfEcR-DEF cDNA gene expression cassettes as described in Example 1 above using the Quikchange PCR-mediated site-directed mutagenesis kit (Stratagene, La Jolla, Calif.). The mutated and the WT cDNAs were tested in GAL4-driven luciferase reporter assays.
DNAs corresponding to the various switch constructs outlined in Example 1, specifically switches 1.1-1.2, were transfected into mouse NIH3T3 cells (ATCC) as follows. […] Two μl of Superfect™ was mixed with 100 μl of growth medium and 50 ng of either GAL4/wild-type EcR or Gal4/mutant EcR cassette, 50 ng of VP16/LmUSP-EF and 200 ng of pFRLuc were added to the transfection mix. […] The cells were harvested and reporter activity was assayed as described above.

CfEcR-A/BCDEF = test: GAL4/full length CfEcR-A/BCDEF or A110P mutant, EcRE-driven luciferase reporter in NIH3T3 cells (FIG. 2); type: cell-based, Choristoneura fumiferana; conditions: 40 hours
Excerpt: To eliminate the possibility that the loss of steroid activity may be due to the truncated CfEcR-DEF receptor or an artifact of the GAL4 fusion protein, Applicants introduced the A110P mutation into the full length (FL) CfEcR (CfEcR-A/BCDEF), fused it to the GAL4 DNA binding domain as described in Example 1.4, and comparatively assayed it in NIH3T3 cells in 24-well plates as described in Example 2 above with full length wild type CfEcR (Example 1.3) in combination with VP16/LmUSP-EF and pFREcRE Luc that comprised the luciferase reporter gene operatively linked to six copies of the ecdysone response element (6×EcRE) and a synthetic TATAA. The transfected cells were grown in the presence of 0.25 or 10 μM PonA or GS™-E and the reporter activity was measured at 40 hours after adding ligand. The cells were harvested and the extracts were assayed for luciferase activity. The numbers on top of the bars indicate fold increase over DMSO levels.

CfEcR-CDEF = conditions: L57 cells, 40 hours, FIG. 3
Excerpt: To determine whether the A110P mutant can respond to 20E, Applicants tested this A110P mutant-based gene expression system in an EcRE-driven reporter assay in insect L57 cells (a Drosophila melanogaster cell line that lacks EcR isoform B, the Drosophila melanogaster EcR isoform homolog of CfEcR isoform B from which the A110P mutant is derived, however L57 cells still contain EcR isoform A). The mutation was introduced into the VP16/CfEcR-CDEF fusion protein and operably linked to an baculovirus IE1 promoter and L57 cells were transfected with IE1VP16CfEcRCDEF (Example 1.5) or its A110P mutant version DNA (Example 1.6) along with a pMK43.2 β-galactosidase reporter gene under the control of 6× ecdysone response elements (“6×EcRE”; the pMK43.2 construct was obtained from Michael Koelle at Stanford University) in 24-well plates. Reporter activity for A110P mutant-based gene expression system transactivation was measured after 40 hours of treatment of the transfected cells with 0, 1, 10, 100, or 1000 nM 20E or GS™-E. The cells were harvested and the extracts were assayed for β-galactosidase (β-gal) and luciferase activity. β-Galactosidase was measured using Galacto-Star™ assay kit from TROPIX following the manufacturer's instructions.

CfEcR-DEF [3] = test: GAL4 fusions of A110 mutants of CfEcR-DEF, reporter transactivation in NIH3T3 cells (FIG. 4); type: cell-based, Choristoneura fumiferana; conditions: 0.04-25 μM GS™-E or RH-125020, 48 hours
Procedure: Four mutations: A110S, A110P, A110L, and A110M were obtained. These four mutant and wild-type receptors were assayed in NIH3T3 cells.

Molecule	competition with bound 3H-RH2485 (binding to WT full-length EcR) (WT full-length EcR)	IC50 [1] [nM]	binding of ligand by the A110P mutant (A110P mutant CfEcR)	IC50 (wild-type CfEcR-A/BCDEF) [nM]	non-steroid reporter activity compared to wild-type receptor (CfEcR-DEF [3])	other results
COc1cccc(C(=O)NN(C(=O)c2cc(C)cc(C)c2)C(C)(C)C)c1C [RH-2485, N′-tert-butyl-N′-(3,5-dimethylbenzoyl)-3-methoxy-2-methylbenzohydrazide]	able to effectively compete	350	unaffected	1800		
CCc1c(OC)cccc1C(=O)NN(C(=O)c1cc(C)cc(C)c1)C(C)(C)C [GS ™-E, N-(2-ethyl-3-methoxybenzoyl)-N′-(3,5-dimethylbenzoyl)-N′-tert-butylhydrazine]	able to effectively compete	12.9	unaffected	85.3		
B1						PonA binding, of wild-type receptor binding (CfEcR): undetectable; Fold increase over WT, 2.5 μM GS™-E (CfEcR-DEF [2]; 2.5 μM GS™-E non-steroidal ligand, NIH3T3 cells, relative to Gal4/wild-type CfEcR-DEF switch activity): 0.8 fold; Fold increase over WT, 2.5 μM PonA (CfEcR-DEF [2]; 2.5 μM PonA steroidal ligand, NIH3T3 cells, relative to Gal4/wild-type CfEcR-DEF switch activity): 0.005 fold; non-steroid activity (summary of Table 10) (CfEcR-DEF [2]; GS™-E, CfEcR-DEF point mutants): not significantly affected; steroid binding activity (summary of Table 10) (CfEcR-DEF [2]; PonA, CfEcR-DEF point mutants): essentially eliminated; non-steroid activity of full length receptor versus full length WT CfEcR (CfEcR-A/BCDEF; 0.25 or 10 μM GS™-E): no significant difference; PonA activity of full length receptor (CfEcR-A/BCDEF; 0.25 or 10 μM PonA): completely lost; reporter gene activity in the presence of 20E (CfEcR-CDEF; 1-1000 nM 20E): slightly increased reporter gene activity; reporter gene expression in the presence of GS™-E (CfEcR-CDEF; 1-1000 nM GS™-E): transactivated reporter gene expression
B2					lower sensitivity and no detectable transactivation at the two lowest concentrations	
B3					lower sensitivity and no detectable transactivation at the two lowest concentrations	
B4					lower sensitivity and no detectable transactivation at the two lowest concentrations	
